In patent US20260209325A1 (SCHOLAR ROCK, published 2026):
Where two headings read alike, the source gives them in different places.

Experiments:
[1] = molecular target: mouse GDF-11 (mouse, UniProt Q9Z1W4 297-405, limits assumed); assay: plate binding assay, OD 450 nm, one antibody concentration that is not given, on Mu-GDF-11 (method not described in the text)
[2] = molecular target: T1, murine pro-myostatin (mouse, UniProt O08689 25-376, biotinylated (in the SPR assay)); assay: plate binding assay, OD 450 nm, antibody titrated 0.0003 to 100 nM, panel 'Mu-Pro-GDF-8 Plate 1' (method not described in the text)
T1 construct: also called proGDF8 (mouse); mouse pro-myostatin

[3] = molecular target: T2, human pro-myostatin (human, UniProt O14793 24-375, biotinylated (in the SPR assay)); assay: plate binding assay, OD 450 nm, antibody titrated 0.0003 to 100 nM, panel 'Hu-Pro-GDF-8 Plate 1' (method not described in the text)
T2 construct: Disulfide-linked homodimer; also called proGDF8 (human)

[4] = molecular target: human GDF-11 (human, UniProt O95390 299-407, limits assumed); assay: plate binding assay, OD 450 nm, one antibody concentration that is not given, on Hu-GDF-11 (method not described in the text)
[5] = molecular target: T3, recombinant human latent myostatin (human, UniProt O14793 24-375, biotinylated (in the Octet pH assay only)); assay: cell-based or functional assay
[6] = molecular target: T2, human pro-myostatin; assay: cell-based or functional assay
[7] = molecular target: T1, murine pro-myostatin; assay: SPR Biacore 8K, biotin-antigen captured
[8] = molecular target: T4, cyno pro-myostatin (cynomolgus monkey, Biotinylated for capture in the SPR assay (site not stated). The native form is a disulfide-linked homodimer, partly furin-cleaved; one chain is given.); assay: SPR Biacore 8K, biotin-antigen captured
T4 construct: also called proGDF8 (cynomolgus); cynomolgus monkey pro-myostatin

[9] = molecular target: T2, human pro-myostatin; assay: SPR Biacore 8K, biotin-antigen captured
[10] = molecular target: T3, recombinant human latent myostatin; assay: cell-based or functional assay; remark: listed apart in the source
[11] = molecular target: T3, recombinant human latent myostatin; assay: cell-based or functional assay; remark: listed apart in the source
[12] = molecular target: T2, human pro-myostatin; assay: Ab KD, summary Table 11; method and antigen not stated there
[13] = molecular target: T3, recombinant human latent myostatin; assay: BLI (Octet Red384): streptavidin biosensors loaded with biotinylated human latent myostatin, antibody association 300 s, dissociation in PBS at pH 7.4 or pH 5.5
Experimental: (§1) Binding was performed at pH 7.4 and dissociation at pH 5.5 in an Octet Red384@assay. Streptavidin biosensors were baselined in 1x kinetics buffer (KB) (Sartorius) for one minute, then loaded with 100 nM biotinylated human latent myostatin for five minutes, followed by another baseline step of one minute in 1x KB. Binding of test antibodies was performed for five minutes and then dissociation was performed in PBS at either pH 7.4 or pH 5.5 for five minutes. Analysis was performed using a partial fit, in which full dissociation was projected. Kd at pH 5.5 was divided by Kd at pH 7.4 to calculate pH sensitivity.

[14] = molecular target: T3, recombinant human latent myostatin; assay: as above; remark: listed apart in the source
Experimental: as §1

Sequence of mouse GDF-11 (Q9Z1W4 297-405 limits assumed): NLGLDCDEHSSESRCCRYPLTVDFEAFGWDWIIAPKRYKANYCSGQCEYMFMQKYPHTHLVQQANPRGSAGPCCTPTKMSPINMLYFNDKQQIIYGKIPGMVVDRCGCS
Sequence of human GDF-11 (O95390 299-407 limits assumed): as the sequence (Q9Z1W4 297-405 limits assumed) above

B1: Ab113 (antibody, human IgG4 S228P, kappa, V domains shown)
VH: QVQLVQSGAEVKKPGASVKVSCKVSGYLLTELSIHWVRQAPGKGLEWMGGIIPSFGTAIYAQKFQGRVTMTEDTSTDTAYMELSSLKSEDTAVYYCAISYSGFDLLPLDKWGQGTLVTVSS
VL: DIQMTQSPSSVSASVGDRVTITCRASQHISTWLAWYQQKPGKAPKLLIYYASSLQGGVPSRFSGSGSGTDFTLTISSLQPEDFANYYCLQTYTYPRTFGGGTKVEIKR
binding result [1]: no binding
EC50 (read off the curve) [2]: ~400 pM
EC50 (read off the curve) [3]: ~200 pM
binding result [4]: no binding

B2: Ab111 (antibody, human IgG4 S228P, kappa, V domains shown)
VH: QVQLVQSGAEVKKPGASVKVSCKVSGYTFTSNDIHWVRQAPGKGLEWMGGIFPIFGTTIYAQKFQGRVTMTEDTSTDTAYMELSSLKSEDTAVYYCAREGLGYDFDYWGQGTLVTVSS
VL: DIQMTQSPSSVSASVGDRVTITCRASQNIGNWLAWYQQKPGKAPKLLIYSASALQSGVPSRFSGSGSGTDFTLTISSLQPEDFANYYCQQSYGAPMYSFGGGTKVEIKR
binding result [1]: no binding
binding result [2]: binds
binding result [3]: binds
binding result [4]: no binding

B3: Ab110 (antibody, human IgG4 S228P, kappa, V domains shown)
VH: QVQLVQSGAEVKKPGASVKVSCKVSEYTFTNYDIHWVRQAPGKGLEWMGGISAYHGNAIYAQKFQGRVTMTEDTSTDTAYMELSSLKSEDTAVYYCARDRVRRDYYNFGMDVWGQGTTVTVSS
VL: DIQMTQSPSSVSASVGDRVTITCRASEDITSYLAWYQQKPGKAPKLLIYDVSSLQSGVPSRFSGSGSGTDFTLTISSLQPEDFANYYCLQHNAYPYGFGGGTKVEIKR
EC50 (read off the curve) [3]: ~500 pM

B4: Ab109 (antibody, human IgG4 S228P, kappa, V domains shown)
VH: EVQLVESGGGLVQPGGSLRLSCAASGFTFSSYGMSWVRQAPGKGLELVASFTGSGGTYYPDSVKGRFTISRDNAKNSLYLQMNSLRAEDTAVYYCARDLLIRFLEWSHYYGMDVWGQGTTVTVSS
VL: DIVMTQSPLSLPVTPGEPASISCRSSQSLLHSSGHNFLHWYLQKPGQSPQLLIYEVSNRVSGVPDRFSGSGSGTDFTLKISRVEAEDVGVYYCMQQTQYPPTFGGGTKVEIKR
notes: human IgG4 in the EM experiment; also called Ab109 Human IgG4
IC50 (nM) Latent + mTLL2 [5]: 0.145 nM
IC50 (nM) Pro + Furin [6]: 0.214 nM
Kd [7]: 197 pM
koff [7]: 0.00134 s⁻¹
kon [7]: 6.81e+06 M⁻¹ s⁻¹
Kd [8]: 128 pM
koff [8]: 0.000925 s⁻¹
kon [8]: 7.23e+06 M⁻¹ s⁻¹
Kd [9]: 138 pM
kon [9]: 6.62e+06 M⁻¹ s⁻¹
IC50 of inhibition of myostatin activation by mTLL-2 (functional ELISA, FIG. 1A) [10]: 380 pM
IC50 of inhibition of myostatin activation by mTLL-2 (functional ELISA, FIG. 1B) [10]: 330 pM
mTLL2 IC50 [11]: 145 pM
Kd [12]: 579 pM
fold difference in off-rate (Kd at pH 5.5 / Kd at pH 7.4) [13]: 25 fold
fold difference in off-rate (Kd at pH 5.5 / Kd at pH 7.4) [14]: 18.4 fold
